Consider three sequences from article PMC9818519.

For this data set, the target named is His-HAT1 (Homo sapiens) (UniProt O14929). The experiment in a line: ELONA. The following applies: ELONA: PBS + 1 mM MgCl2 (selection buffer), 37 °C, 1 h; 100 ng HAT1/well adsorbed; 0.2% BSA block; aptamers heated 95 °C 10 min then ice 10 min.
UniProt O14929, sequence (O14929 whole entry): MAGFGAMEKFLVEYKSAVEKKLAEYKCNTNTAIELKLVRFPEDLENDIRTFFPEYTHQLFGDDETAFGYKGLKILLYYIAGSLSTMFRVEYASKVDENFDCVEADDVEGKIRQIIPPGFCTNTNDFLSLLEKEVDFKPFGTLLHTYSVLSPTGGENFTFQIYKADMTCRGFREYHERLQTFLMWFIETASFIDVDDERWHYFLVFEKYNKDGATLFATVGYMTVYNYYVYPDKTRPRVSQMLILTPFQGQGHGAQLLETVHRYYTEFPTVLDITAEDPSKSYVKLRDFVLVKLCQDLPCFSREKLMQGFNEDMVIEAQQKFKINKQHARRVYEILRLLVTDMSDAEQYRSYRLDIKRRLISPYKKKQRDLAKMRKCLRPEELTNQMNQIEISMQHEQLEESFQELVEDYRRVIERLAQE
For “GCGGATGAAGACTGGTGTCGAGGGGGGGGCGGGCGGGTGGGTTGGCTCTTCATGCCTGTGCCCTAAATACGAGCAAC [apHAT63 (63F)]”, the dissociation constant (Kd) is 38 nM.

For the sequence “GCGGATGAAGACTGGTGTCGAGGGGGGGGCGGGCGGGTGGGTTGGCTCTTCATGCCTGTGCCC [apHAT63T]”, the Kd worked out at 43.7 nM.

Regarding “GTTGCTCGTATTTAGGGCGGGGGGGCGGGGGAGGAGGTGGCGGGAATATCCATTGTCTACACCAGTCTTCATCCGC [apHAT610 (610R)]”, the Kd is 28.1 nM.
